Measured values published in paper PMC2742444.

Columns and labels:
VAV2 = VAV2 (UniProt P52735); assay: anti-FLAG IP, SRM mass spectrometry; settings: reference: wild type, no EGF
SOS1 = SOS1 (UniProt Q07889); assay: anti-FLAG IP, SRM mass spectrometry; settings: reference: wild type, no EGF

With “EGFR (chimeric EGFR-FLAG-GFP) (from UniProt P00533) wild type, EGF 15 min” the fold change (VAV2) was 1.4 fold and the fold change (SOS1) was 1.91 fold.
